The target in series [1] is T1, MBD2b (MBD2 lacking the N-terminal 149 residues) (UniProt Q9UBB5 150-411). As to the kind of experiment: EMSA; 70 pmol each, equimolar; 5 mM Mg2+; EMSA: 50 mM Tris, 5 mM MgCl2, 10 mM DTT, pH 7.5, 5 min, RT, 10 ul, 12% gel, ethidium bromide; protease protection: 50 mM Tris, 5 mM MgCl2, pH 7.5, 10 min RT with DNA, then trypsin 20 min 37 C. As to conditions: protein: recombinant; tags: 6His; label: none (ethidium bromide stain); blunt. On the technique in general: In EMSA bound probe runs differently from free probe, usually more slowly.
T1 sequence (Q9UBB5 150-411): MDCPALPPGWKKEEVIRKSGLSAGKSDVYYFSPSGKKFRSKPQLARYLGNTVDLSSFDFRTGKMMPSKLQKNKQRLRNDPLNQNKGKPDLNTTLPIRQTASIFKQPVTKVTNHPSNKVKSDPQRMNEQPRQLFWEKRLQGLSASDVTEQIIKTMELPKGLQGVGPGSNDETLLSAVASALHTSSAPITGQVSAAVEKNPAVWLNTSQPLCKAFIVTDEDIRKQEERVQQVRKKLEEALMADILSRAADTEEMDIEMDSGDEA

Series [2] has as its target T1, MBD2b (MBD2 lacking the N-terminal 149 …). As to the kind of experiment: EMSA; 70 pmol each, equimolar; 5 mM Mg2+; 1:1 stoichiometry; EMSA: 50 mM Tris, 5 mM MgCl2, 10 mM DTT, pH 7.5, 5 min, RT, 10 ul, 12% gel, ethidium bromide; protease protection: 50 mM Tris, 5 mM MgCl2, pH 7.5, 10 min RT with DNA, then trypsin 20 min 37 C. As to conditions: protein: recombinant; tags: 6His; label: none (ethidium bromide stain); blunt.

B1: HTRA1 promoter 12-mer, unmethylated (dsDNA)
DNA 1: CTCAGCGAGAGA
DNA 2: TCTCTCGCTGAG
On to B1, for which the binding result in series [1] is listed as “no binding”.

B2: HTRA1 promoter 12-mer, methylated (dsDNA)
DNA 1: CTCAGCGAGAGA
DNA 2: TCTCTCGCTGAG
modifications: 5-methyl-dC at position 6 of the reverse strand (TCTCT-5mC-GCTGAG); forward-strand methylation not visible in the material (line truncated), probably 5mC at position 6
As to B2, the binding result in series [2] is on record as “binds”.

For the origin of these results see article PMC4936022, “Epigenetic silencing of serine protease HTRA1 drives polyploidy”.
